# In publication PMC2673435:
# Experiments:
# Assay in all cases: fluorescence polarization
# [1] = biological target: RPA•2(WF) (Saccharomyces cerevisiae, UniProt P22336;P26754;P26755 1-621;1-273;1-122, W101A;F143A)
# [2] = biological target: RPA•2(MM2) (Saccharomyces cerevisiae, UniProt P22336;P26754;P26755 1-621;1-273;1-122, D80A;T82A;E103A;D104A;D158A;E162A)
# [3] = biological target: RPA•2(DT) (Saccharomyces cerevisiae, UniProt P22336;P26754;P26755 1-621;1-273;1-122, D80A;T82A)
# [4] = biological target: RPA•2(MM1) (Saccharomyces cerevisiae, UniProt P22336;P26754;P26755 1-621;1-273;1-122, D80A;T82A;I96L;E97A;R99A;K100A;K146A;K147A)
# [5] = biological target: RPA•2(ERK) (Saccharomyces cerevisiae, UniProt P22336;P26754;P26755 1-621;1-273;1-122, I96L;E97A;R99A;K100A)
# Sequence of RPA•2(ERK) (P22336 whole entry, chain 1 of 3): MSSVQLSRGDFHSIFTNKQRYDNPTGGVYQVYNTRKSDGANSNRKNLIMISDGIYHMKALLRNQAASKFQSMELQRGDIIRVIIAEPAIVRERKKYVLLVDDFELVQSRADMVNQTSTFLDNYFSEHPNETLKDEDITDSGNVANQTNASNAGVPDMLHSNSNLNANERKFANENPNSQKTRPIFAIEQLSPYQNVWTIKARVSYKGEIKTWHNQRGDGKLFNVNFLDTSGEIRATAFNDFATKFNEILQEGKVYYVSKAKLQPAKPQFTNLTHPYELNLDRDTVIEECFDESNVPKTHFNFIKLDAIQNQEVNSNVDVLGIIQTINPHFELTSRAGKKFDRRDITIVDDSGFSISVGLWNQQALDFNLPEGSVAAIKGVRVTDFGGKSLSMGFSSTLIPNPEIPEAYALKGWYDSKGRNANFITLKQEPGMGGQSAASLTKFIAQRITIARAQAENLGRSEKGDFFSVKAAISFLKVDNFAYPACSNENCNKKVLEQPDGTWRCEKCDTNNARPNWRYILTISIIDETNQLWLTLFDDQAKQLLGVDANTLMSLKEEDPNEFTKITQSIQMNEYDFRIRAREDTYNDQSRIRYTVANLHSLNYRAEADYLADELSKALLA
# Sequence of RPA•2(ERK) (P26754 whole entry I96L/E97A/R99A/K100A, chain 2 of 3): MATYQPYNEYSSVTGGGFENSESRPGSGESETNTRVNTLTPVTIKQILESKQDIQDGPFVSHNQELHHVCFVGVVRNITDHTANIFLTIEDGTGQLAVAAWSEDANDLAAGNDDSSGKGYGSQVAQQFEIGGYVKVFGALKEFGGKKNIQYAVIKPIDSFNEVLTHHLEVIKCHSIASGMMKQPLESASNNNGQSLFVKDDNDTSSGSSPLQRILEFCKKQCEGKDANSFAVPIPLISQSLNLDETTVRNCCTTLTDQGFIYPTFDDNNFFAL
# Sequence of RPA•2(ERK) (P26755 whole entry, chain 3 of 3): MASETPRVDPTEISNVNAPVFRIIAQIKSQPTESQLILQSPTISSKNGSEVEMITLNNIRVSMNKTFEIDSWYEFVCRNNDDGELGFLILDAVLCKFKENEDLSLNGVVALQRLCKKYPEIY
# Sequence of RPA•2(DT) (P22336 whole entry, chain 1 of 3): as the sequence (P22336 whole entry, chain 1 of 3) above
# Sequence of RPA•2(DT) (P26754 whole entry D80A/T82A, chain 2 of 3): as the sequence (P26754 whole entry I96L/E97A/R99A/K100A, chain 2 of 3) above, with D80A, T82A, L96I, A97E, A99R, A100K counted along it
# Sequence of RPA•2(DT) (P26755 whole entry, chain 3 of 3): as the sequence (P26755 whole entry, chain 3 of 3) above
# Sequence of RPA•2(WF) (P22336 whole entry, chain 1 of 3): as the sequence (P22336 whole entry, chain 1 of 3) above
# Sequence of RPA•2(WF) (P26754 whole entry W101A/F143A, chain 2 of 3): as the sequence (P26754 whole entry I96L/E97A/R99A/K100A, chain 2 of 3) above, with L96I, A97E, A99R, A100K, W101A, F143A counted along it
# Sequence of RPA•2(WF) (P26755 whole entry, chain 3 of 3): as the sequence (P26755 whole entry, chain 3 of 3) above
# Sequence of RPA•2(MM2) (P22336 whole entry, chain 1 of 3): as the sequence (P22336 whole entry, chain 1 of 3) above
# Sequence of RPA•2(MM2) (P26754 whole entry D80A/T82A/E103A/D104A/D158A/E162A, chain 2 of 3): as the sequence (P26754 whole entry I96L/E97A/R99A/K100A, chain 2 of 3) above, with D80A, T82A, L96I, A97E, A99R, A100K, E103A, D104A, D158A, E162A counted along it
# Sequence of RPA•2(MM2) (P26755 whole entry, chain 3 of 3): as the sequence (P26755 whole entry, chain 3 of 3) above
# Sequence of RPA•2(MM1) (P22336 whole entry, chain 1 of 3): as the sequence (P22336 whole entry, chain 1 of 3) above
# Sequence of RPA•2(MM1) (P26754 whole entry D80A/T82A/I96L/E97A/R99A/K100A/K146A/K147A, chain 2 of 3): as the sequence (P26754 whole entry I96L/E97A/R99A/K100A, chain 2 of 3) above, with D80A, T82A, K146A, K147A counted along it
# Sequence of RPA•2(MM1) (P26755 whole entry, chain 3 of 3): as the sequence (P26755 whole entry, chain 3 of 3) above
binder,measurement,setting,value
TTTTTTTTTTTTTTTTTTTTTTTTTTTTTT (ssDNA) [dT30],Ka,[1],3.85e+07 M⁻¹
same,binding result,[2],binds
same,binding result,[3],binds
same,binding result,[4],binds
same,binding result,[5],binds
